Values quoted from earlier work, collected in patent US20030134789A1, “Compositions and methods for protecting tissues and cells from damage, and for repairing damaged tissues” (priority 2001, published 2003).

Details: humans, an hour after ingesting 200 g of raw peanuts

B1: peanut agglutinin (PNA): dietary lectin found in the blood of humans after ingesting raw peanuts (protein, UniProt P02872 24-273, looked up)
Galactose-binding lectin: AETVSFNFNSFSEGNPAINFQGDVTVLSNGNIQLTNLNKVNSVGRVLYAMPVRIWSSATGNVASFLTSFSFEMKDIKDYDPADGIIFFIAPEDTQIPAGSIGGGTLGVSDTKGAGHFVGVEFDTYSNSEYNDPPTDHVGIDVNSVDSVKTVPWNSVSGAVVKVTVIYDSSTKTLSVAVTNDNGDITTIAQVVDLKAKLPERVKFGFSASGSLGGRQIHLIRSWSFTSTLITTTRRSIDNNEKKIMNMASA
level in the blood: 1000 to 5000 ng/mL
